Where two headings read alike, the source gives them in different places.
Key:
[1] = target: recombinant human tumor necrosis factor alpha (rhTNF-α) (human)
[2] = target: recombinant human tumor necrosis factor alpha (rhTNF-α) (human); assay: MST; labelled rhTNF-α (RED-NHS 2nd Generation) at 20 nM, peptide titrated in 16 serial dilutions, PBS, 20 min incubation in the dark, Monolith NT.115 Pico, medium MST power
[3] = target: recombinant human tumor necrosis factor alpha (rhTNF-α) (human); remark: listed apart in the source

Chain of recombinant human tumor necrosis factor alpha (rhTNF-α) (human) (P01375 77-233): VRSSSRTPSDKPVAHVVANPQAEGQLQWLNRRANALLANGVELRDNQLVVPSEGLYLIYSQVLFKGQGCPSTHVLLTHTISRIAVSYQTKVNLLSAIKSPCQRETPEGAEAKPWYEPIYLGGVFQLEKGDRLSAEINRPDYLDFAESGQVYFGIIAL

Binder | neutralization of TNF-α-induced cytotoxicity on L929 cells (MTT, 1 ng/mL TNF-α with actinomycin D, peptide 1 pM to 10 μM); blocks TNF-α with TNFR1 [1] [nM] | Kd [2] [nM] | neutralization of TNF-α-induced cytotoxicity on L929 cells (MTT, 1 ng/mL TNF-α with actinomycin D, peptide 1 pM to 10 μM); blocks TNF-α with TNFR1 [3] [nM]
KRWSRYFWVDMTGTR [OB8 peptide] | 7500 | 3890 | –
KGGGSGGGSHIHDDLLRYYGW [OB1 peptide] | – | 300 | 4.6
KGGGSGGGSGGGSRKEMGQV [OB2 peptide] | – | 46.7 | 0.081
